Data from patent CN117964771A (ZHIZE TONGKANG GUANGZHOU BIOTECHNOLOGY CO LTD, dated 2024).

Molecular target: T1, 人基质金属蛋白酶7(hMMP7)重组蛋白 (human, UniProt P09237 18-267, limits assumed)
T1 construct: Recombinant protein made according to UniProt P09237; also called MMP7抗原; MMP7蛋白
T1 sequence (looked up): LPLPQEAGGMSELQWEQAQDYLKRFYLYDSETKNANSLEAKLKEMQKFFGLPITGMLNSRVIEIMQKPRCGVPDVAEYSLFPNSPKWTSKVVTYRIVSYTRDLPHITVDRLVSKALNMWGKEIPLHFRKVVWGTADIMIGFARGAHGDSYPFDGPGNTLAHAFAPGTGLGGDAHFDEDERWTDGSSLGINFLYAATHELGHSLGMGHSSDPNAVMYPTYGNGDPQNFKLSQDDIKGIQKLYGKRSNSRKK
Experiment: SPR, labelled MMP7 immobilised on chip, antibody as analyte (100 nM, 2-fold dilutions), 1:1 Langmuir model

Kd: < 1 nM
B1: MMP7单克隆抗体M4 (antibody, mouse IgG1, kappa, V domains shown)
VH: QVQLQQSGAELMKPGASVKLSCKASGYTFTSYYMYWVKQRPGQGLEWIGEINPSNADTEFNEKFKSKATLTVDKSSSTAYMQLSSLTSEDSAVYYCTRWPLYGAMDYWGQGTSVTVSS
VL: DVQITQSPSYLAASPGETITINCRASKSISKYLAWYQEKPGKTNKLLIYSGHWLQSGIPSRFSGSGSGSDFTLTISSLEPEDFAMYYCQQHFEYPWTFGAGTKLELKR
